Assay results reported in patent US20060234293A1, “Polypeptide methods and means” (priority 2002, published 2006).

Target: T1, Biotinylated BRC Repeat 4 peptide (Bio-BRC4) (Homo sapiens, UniProt P51587)
T1 construct: host or cells: chemical synthesis for the peptide; E. coli BL21 Codon Plus for RAD51 F86E
Experiment: SPR binding assay of RAD51 F86E on BRC4 coupled-chip
Conditions: 5 μM in HBSEP, 60 seconds contact time; FIG. 9(a)
Procedure: Measurements were performed on the BIACORE X biosensor (BIACORE AB, Uppsala, Sweden). A continuous flow of de-gassed and 0.22 μm filtered HBSEP running buffer was employed at a constant temperature of 25° C.
Flow cells 1 and 2 of a pre-coated streptavidin Sensor chip SA were conditioned with three sequential 20 μl injections of 1 M NaCl, 50 mM NaOH at a flow rate of 20 μl/min.
Biotinylated BRC Repeat 4 peptide (Bio-BRC4) was immobilized to a level of 200 RU by affinity capture onto Flow cell 2 only. This was achieved by two 20 μl injections of 10 nM Bio-BRC4 in HBS-EP at a flow rate of 20 μl/min. Flow cell 1 represented a reference surface to correct for any refractive index variations and thus was not derivated. Flow cells 1 and 2 were both subsequently treated with three successive injections of 40 μl regeneration solution (10 mM Glycine pH 2.5) at a flow rate of 40 μl/min to ensure baseline stabilization.
The […] mutant RAD51 Phe86Glu (F86E) or Ala89Glu (A89E) protein in solution can then be run over the BRC repeat coupled-chip in a Biacore instrument (Biacore AB, Uppsala, Sweden) or other suitable measuring device for surface-plasmon resonance. Reference corrected data was analysed using BIAevalution software (3.2V) and sensorgrams plotted. […]

T1 sequence (P51587 1517-1551 limits assumed): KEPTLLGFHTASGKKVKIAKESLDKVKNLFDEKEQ
T1 sequence (Q06609 whole entry F86E partner): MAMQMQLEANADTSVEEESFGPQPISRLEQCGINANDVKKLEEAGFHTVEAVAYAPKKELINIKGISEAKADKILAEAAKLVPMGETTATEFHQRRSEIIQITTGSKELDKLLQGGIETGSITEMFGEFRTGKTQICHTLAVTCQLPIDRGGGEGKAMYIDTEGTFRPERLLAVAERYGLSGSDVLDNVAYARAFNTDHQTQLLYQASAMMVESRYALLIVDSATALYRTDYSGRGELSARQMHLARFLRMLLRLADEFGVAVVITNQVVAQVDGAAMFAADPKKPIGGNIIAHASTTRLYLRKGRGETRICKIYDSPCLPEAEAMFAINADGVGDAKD

B1: RAD51 F86E: non-oligomerising mutant RAD51 with Phe86 replaced by glutamic acid (protein, UniProt Q06609 2-339, looked up, variant F86E)
DNA repair protein RAD51 …: AMQMQLEANADTSVEEESFGPQPISRLEQCGINANDVKKLEEAGFHTVEAVAYAPKKELINIKGISEAKADKILAEAAKLVPMGETTATEFHQRRSEIIQITTGSKELDKLLQGGIETGSITEMFGEFRTGKTQICHTLAVTCQLPIDRGGGEGKAMYIDTEGTFRPERLLAVAERYGLSGSDVLDNVAYARAFNTDHQTQLLYQASAMMVESRYALLIVDSATALYRTDYSGRGELSARQMHLARFLRMLLRLADEFGVAVVITNQVVAQVDGAAMFAADPKKPIGGNIIAHASTTRLYLRKGRGETRICKIYDSPCLPEAEAMFAINADGVGDAKD
  binding to the BRC4 coupled-chip: binding can easily be detected
